One test concerns the target FLAG-tagged Ragulator (UniProt Q6IAA8 1-161; Q9UHA4 1-124; Q9Y2Q5 1-125; O43504 1-91; Q0VGL1 1-99, G2A). Put plainly: pull-down.
In the next test the target is HA-GST-tagged Ragulator (UniProt Q9Y2Q5 1-125; Q9UHA4 1-124; Q6IAA8 1-161; O43504 1-91; Q0VGL1 1-99, G2A). The test is described as follows: pull-down.

B1: FLAG-tagged c17orf59 (natural protein)
chain: MESSRGRPGPETDLLAVAEHQALVFGGGPGRTSSEPPAGLRVSGEEETENVGGANRHPRTSPKTSSCGVVHRPEREALENEPGPQGTLSGAGSRRGAPGAEHEPSLSSRHKNPAPPEGKPSSGRDCRRGGPGGGMDVEQQEEEDNDEEAAAGSRAGRSFSSRLQDSRSLDGLSEACGGAGSSGSAESGAGGGRRATISSPLELEGTVSRHGDLTHFVANNLQLKIRLSGAPPPPPSAPARPCPAPAPTPTPAIPPIDPEVLRDLERLSRELGGRVDRLLRGLGGAVQELTALSVGCIQTYRDAVDSLGEAVDMSIKGMYTLLARCEELERALQPVQGLARQVRDIRRTLEVLEALCK
Consider B1, for which the binding result in the test with FLAG-tagged Ragulator and with HA-GST-tagged Ragulator was “binds” throughout.

For the origin of these results see paper PMC4570232 (Cell reports, 2015).
